According to EP4703388A1 (Jiangsu Hengrui Pharmaceuticals Co., Ltd., dated 2024):
Numbering of substitutions follows the chain as printed.

T1: cyno TF ECD-His (cTF-his) (monkey (cyno))
T1 construct: also called bio-cTF-his; monkey TF-His protein
T1 chain: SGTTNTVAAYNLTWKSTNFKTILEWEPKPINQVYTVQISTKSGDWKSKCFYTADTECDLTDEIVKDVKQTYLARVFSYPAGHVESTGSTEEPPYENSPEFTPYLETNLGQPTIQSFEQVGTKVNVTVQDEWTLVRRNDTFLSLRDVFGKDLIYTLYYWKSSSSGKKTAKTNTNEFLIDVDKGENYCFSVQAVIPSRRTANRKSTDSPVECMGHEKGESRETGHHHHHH

B1: chimeric antibody CH310 (antibody, human IgG1, kappa, V domains shown)
VH: EVQLQQSGPELVKPGASLKISCKASGYSFTGYYMNWVKQSPEKSLEWIGEINPSTGGSTYNQKFKAKATLTVDQSSNTAYMQLKSLTSEDSAVYYCARRELGGPFGYWGQGTPVTVSA
VL: SIVMTQTPKFLLVSSGDRVTITCKASQSVSNGIAWYQQKPGQSPKLLIYFASNRYTGVPDRFTGSGYGTDFTFTISTVQAEDLAVYFCQQDYSSPWTFGGGTKLEIKR
notes: Murine 310# variable regions + human constant regions
B2: hu67-11 (antibody, human IgG1, kappa, V domains shown)
VH: EVQLQESGPGLVKPSQTLSLTCTVSGFSLTNYGVNWIRQPPGKGLEWIGVIWSRGNTDYNAAFISRVTISKDTSKNQVSLKLSSVTAADTAVYYCARKDAVVATDALDYWGQGTTVTVSS
VL: DIQMTQSPSSLSASVGDRVTITCKASQDVSTAVAWYQQKPGKAPKLLIYSTSYRYTGVPSRFSGSGSGTDFTFTISSLQPEDIATYYCQQHYSTPYTFGGGTKVEIKR
B3: hu67-4 (antibody, human IgG1, kappa, V domains shown)
VH: B2 VH with G42R, T73N, N76S
VL: DIVMTQSPKSLAVSLGERATINCKASQDVSTAVAWYQQKPGQPPKLLIYSTSYRYTGVPDRFSGSGSGTDFTLTISSLQAEDVAVYYCQQHYSTPYTFGGGTKVEIKR
B4: hu67-14 (antibody, human IgG1, kappa, V domains shown)
VH: EVTLKQSGPVLVKPTQTLTLTCTVSGFSLTNYGVNWIRQPPRKGLEWLGVIWSRGNTDYNAAFISRLTISKDNSKSQVVLKMTNMDPVDTATYYCARKDAVVATDALDYWGQGTTVTVSS
VL: B2 VL with P8H, S9K, S10F, A43S
B5: hu67Y118 (antibody, human IgG1, kappa, V domains shown)
VH: B2 VH with P40S, I64K, V101I
VL: B2 VL with S30Q, S52H, Q89L, H91L, Y92I, S93G, T94V, Y96H
B6: chimeric antibody CH67 (antibody, human IgG1, kappa, V domains shown)
VH: QVQLKQSGPGLVQPSQSLSITCIVSGFSLTNYGVNWVRQSPRKGLEWLGVIWSRGNTDYNAAFISRLIISKDNSKSQVFLKMNRLQADDTAIYYCARKDAVVATDALDYWGQGTSVTVSS
VL: DIVMTQSHKFMSTSLGDRVSITCKASQDVSTAVAWYQQKPGQSPKLLIYSTSYRYTGVPDRFTGSGSGTDFTFTISSVQAEDLAVYYCQQHYSTPYTFGGGTKLEIKR
notes: Murine 67# variable regions + human constant regions
B7: hu10H10-29 (antibody, V domains shown)
VH: EVQLVQSGSELKKPGASVKVSCKASGYTFITYWIEWVKQRPGQGLEWMGDILPYSGSTNYNENFKGRATFSADTSVSTAYLQISSLKAEDTAVYYCARSGYYGNSGFAYWGQGTLVTVSS
VL: DIQMTQSPSSLSASVGDRVTITCKSSQSLLSSGNQKNYLTWYQQKPGKAPKLLIYWASTRESGVPSRFSGSGSGTDFTLTISSLQPEDFATYYCQNDYTYPLTFGQGTKLEIK
notes: H11+L1; Full-length IgG
B8: hu10H10-33 (antibody, V domains shown)
VH: B7 VH with Y54G
VL: B7 VL with S62E
notes: H7+L3; Full-length IgG
B9: hu10H10-34 (antibody, V domains shown)
VH: B7 VH with Y27R, K38R, Y54G
VL: B7 VL with S62E
notes: H8+L3; Full-length IgG
B10: hu10H10-37 (antibody, V domains shown)
VH: B7 VH
VL: B7 VL with S62E
notes: H11+L3; Full-length IgG
B11: hu10H10-39 (antibody, V domains shown)
VH: B7 VH with Y54G, S57W
VL: B7 VL with S62E
notes: H13+L3 (printed bu10H10-39); Full-length IgG; also called bu10H10-39
B12: hu10H10-36 (antibody, V domains shown)
VH: B7 VH with T31E, Y54G
VL: B7 VL with S62E
notes: H10+L3; Full-length IgG
B13: hu10H10-40 (antibody, V domains shown)
VH: B7 VH with K38R, Y54G, S57W, T69V
VL: B7 VL with S62E
notes: H14+L3 (printed bu10H10-40); Full-length IgG; also called bu10H10-40
B14: hu10H10-58 (antibody, V domains shown)
VH: B7 VH with K38R, Y54G, T69V
VL: B7 VL with G33S, S62E
notes: H2+L6; Full-length IgG
B15: hu10H10-38 (antibody, V domains shown)
VH: B7 VH with Y54G, S55H
VL: B7 VL with S62E
notes: H12+L3; Full-length IgG
B16: hu10H10-53 (antibody, V domains shown)
VH: B7 VH
VL: B7 VL with G33S, S62E
notes: H11+L6; Full-length IgG
B17: hu10H10-35 (antibody, V domains shown)
VH: B7 VH with I30R, Y54G
VL: B7 VL with S62E
notes: H9+L3; Full-length IgG
B18: hu10H10-57 (antibody, V domains shown)
VH: B7 VH with K38R, Y54G, T69V
VL: B7 VL with S31D, S62E
notes: H2+L5; Full-length IgG

What was measured:
[1] = target: T2, human tissue factor (TF) on MDA-MB-231, NCI-H358 and HCT116 cells (human, UniProt P13726 33-295); experiment: flow cytometry on MDA-MB-231 cells
T2 construct: whole, on cells; also called TF antigen; CD142

[2] = target: T3, human TF ECD-His (hTF-his) (human, UniProt P13726 33-251); experiment: SPR Biacore T200, antibody on Protein A chip, TF-His as analyte, 1:1 model
T3 construct: also called bio-hTF-his; human TF-His protein

[3] = target: T1, cyno TF ECD-His (cTF-his); experiment: as above
[4] = target: T2, human tissue factor (TF) on MDA-MB-231, …; experiment: flow cytometry on H358 cells

Binder	EC50 [1] [nM]	Kd [2] [nM]	koff [2] [s⁻¹]	kon [2] [M⁻¹ s⁻¹]	Kd [3] [nM]	koff [3] [s⁻¹]	kon [3] [M⁻¹ s⁻¹]	EC50 [4] [nM]
B1	1.84	23.2	0.00949	409000	23.5	0.00767	327000	
B2	26.3	16.5	0.000675	40900	8.95	0.000243	27100	
B3	18	18.9	0.000766	40500	15.5	0.000523	33700	90.5
B4	18.9	20.1	0.000624	31000	12.9	0.000399	31000	107
B5	7.05							
B6	16.5	36.7	0.000969	26400	16	0.000473	29500	55.9
B7	1.09	0.545	7.45e-05	137000	0.642	9.83e-05	153000	0.45
B8	1.09							0.96
B9	1.12							0.99
B10	1.07							0.35
B11	1.1							0.42
B12	2.14							0.96
B13	1.07							0.55
B14	1.43							1.09
B15	1.14							0.81
B16	1.09	0.47	7.34e-05	156000	0.375	6.77e-05	181000	0.41
B17	1.09							0.79
B18	1.12							1.02
